Experimental findings from patent US5817484A, “Thermoresistant α-1-antitrypsin mutein” (priority 1993, dated 1998) are described below.

Data set [1] concerns elastase. Description: Association constant to elastase (Beatty's method). It counts as biochemical. The protocol: (§1) Specifically, the AT's activity to inhibit elastase was evaluated by: mixing elastase and AT extract to react them, adding thereto a substrate (prepared by dissolving succinyl-alanyl-alanyl-alanyl-para-nitroanilide (SIGMA S4760) in dimethyl sulfoxide) and measuring the change of absorbency at 410 nm to determine the residual elastase activity. The thermal stability of AT was estimated by determining its activity of inhibiting elastase, using AT treated at 55° C. in case cell extract is used or at 57° to 58° C. in case a purified AT is used. As controls, a wild-type AT produced in E. coli or yeast cell and natural AT isolated and purified from human plasma were used.
From the reaction mixture containing the same concentrations (8 nM) of elastase and AT, samples of the mixture were taken every minute for 10 mins. 1 mM succinyl-alanyl-alanyl-alanyl-p-nitroanilide (SIGMAS4760) was added as a substrate to each sample. The elastase activity of each sample was determined by measuring the absorbency at 410 nm, and then the association constant was calculated from the plot slope of reciprocal of elastase concentration vs time.

In data set [2] the test system is elastase. Description: Thermal inactivation of purified AT at 57-58° C., remaining elastase inhibiting activity. In kind it is physicochemical. As to conditions: for half-life: purified AT. The protocol:
as §1, with “The activity of AT was measured by evaluating the inhibition by AT of the elastase's activity to degrade peptides in accordance with the procedure described by Travis & Johnson in Methods in Enzymol., 80, 754 (1981). Specifically,” for “Specifically,”
The elastase inhibiting activity of AT was evaluated by using a modified method described by Travis et al. (Travis & Jonhson, Methods in Enzymol. 80, 754 (1981)). As a reaction buffer, 50 mM Tris (pH 8.0) containing 50 mM NaCl was used, and 15 mM succinyl-alanyl-alanyl-alanyl-paranitro-anilide (SIGMA S4760) dissolved in dimethyl-sulfoxide was used as a substrate for elastase. An enzyme solution was prepared by dissolving elastase to the concentration of 0.3 μM in the reaction buffer solution containing 50% glycerol.
(§2) The elastase inhibiting activity of AT was determined as follows: 10 μl of the enzyme solution, 10 to 50 μl of the AT extracts and the reaction buffer solution were mixed to make the final volume of 60 μl, and then reacted for 10 mins. After 430 μl of the reaction buffer solution and 10 μl of the substrate were added thereto, the change of absorbency at 410 nm was immediately measured for 3 mins.
For the comparison of their thermal stability, various kinds of AT muteins were incubated at 57° C., from which samples were taken every minute. Then the remaining activity of AT muteins was determined in the same manner as described in Example 1 above and their half-life and thermal inactivation rate were calculated from the slope of the plot of a logalithmic value of the remaining activity vs time (see FIG. 3).

Data set [3] relates to elastase. As to the kind of experiment: Thermal stability at 55° C. of AT expressed in E. coli, elastase inhibiting activity measured every minute. Conditions: FIG. 8. In kind it is physicochemical. The protocol:
as §1, with “The activity of AT was measured by evaluating the inhibition by AT of the elastase's activity to degrade peptides in accordance with the procedure described by Travis & Johnson in Methods in Enzymol., 80, 754 (1981). Specifically,” for “Specifically,”, “As controls, a wild-type AT produced in E. coli or yeast cell and natural AT isolated and purified from human plasma were used.” left out
The elastase inhibiting activity of AT was evaluated by using a modified method described by Travis et al. (Travis & Jonhson, Methods in Enzymol. 80, 754 (1981)). […]
as §2

[4] abbreviates: Table II, ATs produced in yeast and controls.

With “wild-type yeast AT (phenylalanine): wild-type α-1-antitrypsin produced in Saccharomyces diastaticus (pGAT11)”, the association constant in data set [1] (setting [4]) amounted to 1.5e+06 M⁻¹ s⁻¹. Moreover, in data set [2] (at 58° C.), the “thermal resistance, times higher than that of the wild-type recombinant AT expressed in E. coli” value amounted to 5.3 times and the half-life (in general, the time needed for the level to fall by half in the phase considered) stood at 6.9 min. Besides, in data set [2] (at 58° C., produced in yeast), the “thermal resistance (in words)” value is “a lower thermoresistance than that of the human plasma AT”.
For the substance “multiple mutant AT wherein the 51st residue is leucine and the 374th is isoleucine: α-1-antitrypsin with two replacements: 51st leucine and 374th isoleucine, expressed in E. coli”, the “thermoresistance, times higher than the single mutant ATs” value in data set [3] was “at least 300 times”.
As for “Human plasma AT: natural α-1-antitrypsin from human plasma (A9204), purified over Affi-Gel Blue and mono-Q columns”, the association constant in data set [1] (Table I, 8 nM elastase and 8 nM AT, purified AT) is 1.7e+06 M⁻¹ s⁻¹; in data set [1] (setting [4]), 1.7e+06 M⁻¹ s⁻¹. The half-life in data set [2] (at 57° C.) came out at 49.7 min; in data set [2] (at 58° C.), 35.2 min.
